Where a chain is given by its changes, count along the chain named. Names may count otherwise.

From article PMC9592557, “Structures of SAS-6 coiled coil hold implications for the polarity of the centriolar cartwheel” (Structure(London, England:1993), 2022) come the findings set out here.

The target of data set [1] is HsSAS-6_CC_(Middle) (human) (UniProt Q6UVJ0). As to the kind of experiment: SEC-MALS; step: monomers to the coiled-coil dimer; Superdex 75 or 200 10/300 GL, 10 mM K-PIPES pH 7.2. (In gel filtration, larger molecules generally elute earlier.)
Data set [2] has as its target DrSAS-6_CC_(Middle) (Danio rerio) (UniProt Q7ZVT3). The data set is described as above.
Data set [3] deals with the molecule itself. As to the kind of experiment: cryo-EM cartwheel reconstitution (ring stacking) assay; purified protein dialysed overnight at 4°C into 10 mM K-PIPES pH 7.2 (no salt), vitrified, isolated cartwheels analysed.
The data set “ITC” deals with the molecule itself. Briefly: ITC. Background: ITC needs no label: the signal is the heat of the interaction.
Data set [4] concerns the target CrSAS-6_CC_(Middle) (C. reinhardtii) (UniProt A9CQL4). Briefly: ITC; dilution ITC, step: higher-order complex to coiled-coil dimers; 1.82 mM monomer in the syringe injected into buffer alone, 20°C, 10 mM K-PIPES pH 7.2, dissociation model.
For data set [5] the target is unchanged. As to the kind of experiment: SEC-MALS; step: monomers to the coiled-coil dimer; Superdex 75 or 200 10/300 GL, 10 mM K-PIPES pH 7.2.

With “HsSAS-6_CC_(Middle) (from UniProt Q6UVJ0 211-312) (domain or fragment)”, the stoichiometry N (usually the number of molecules, sites or subunits per partner or assembly) in data set [1] came out at 2.
With “DrSAS-6_CC_(Middle) (from UniProt Q7ZVT3 243-358) (domain or fragment)”, in data set [2], the stoichiometry N amounted to 2.

B1: CrSAS-6NL (domain or fragment, C. reinhardtii, UniProt A9CQL4 1-503, looked up)
chain: MPLLLDDGDPKAQTGFDLSTATTLFWRPVPVHVKQQDREDVLEELTFRILTGVAKQNHNLRILRIHISSDSDLFFLHTLEVSEEDFQSLKNDQGILVDFASFPGKIISLLEKCILAQPGDSPRFQAVLTIRGGESVFKIVEINDFKQLPHITLAFRPGNDSVVKQFLAFRLSEVKGTCHDLSDDLSRTRDDRDSMVAQLAQCRQQLAQLREQYDKHLLEVQAQAKTQQASAHEERIREKSQLKDQFEKERGEMEGRYRDQIAALNTRLGELDTENRKLREVKYELDTKVSELSHKLGSSEGSNRSLEEETARLRSLNQQLSSSKHELEIQLNEAKAKVLALDEKAQSQGDVIEQQRGRLRDMEAALRQTEQRCADLRDTLASAEGRAKEAQAEVLKGNQAIEKLTNDLRLAKEKTKRKAAIILRQEEELQEREQSLANATRDVGVLGQQAESLRKDVASLHSENDSLRSKLEDSKQQLQSNEQMIRWLNQQVTEAQLHASGAT
notes: C. reinhardtii SAS-6, residues 1-503: head domain and full-length coiled-coil domain, without the disordered C-terminal tail; also called WT CrSAS-6NL; C. reinhardtii SAS-6 (1-503); source: E. coli BL21(DE3), purified (HiTrap Talon, 3C cleavage, SEC); not shown: His6, N-terminal, cleaved
Take B1: the binding result in data set [3] is reported as “binds”.

B2: CrSAS-6LD (domain or fragment, C. reinhardtii, UniProt A9CQL4 1-503, looked up)
chain: B1 chain with L339E, D378N
notes: C. reinhardtii SAS-6, residues 1-503, mutant aimed at the symmetric coiled-coil complex; also called C. reinhardtii SAS-6 (1-503; L339E/D378N); source: E. coli BL21(DE3), purified (HiTrap Talon, 3C cleavage, SEC); not shown: His6, N-terminal, cleaved
Consider B2, for which the binding result in data set [3] was “binds”.

B3: CrSAS-6VD (domain or fragment, C. reinhardtii, UniProt A9CQL4 1-503, looked up)
chain: B1 chain with V351E, D361N
notes: C. reinhardtii SAS-6, residues 1-503, mutant aimed at the asymmetric coiled-coil complex; also called C. reinhardtii SAS-6 (1-503 V351E/D361N); source: E. coli BL21(DE3), purified (HiTrap Talon, 3C cleavage, SEC); not shown: His6, N-terminal, cleaved
As for B3, the binding result in data set [3] was “binds”.

B4: CrSAS-6LE (domain or fragment, C. reinhardtii, UniProt A9CQL4 1-503, looked up)
chain: B1 chain with L306A, E326A
notes: C. reinhardtii SAS-6, residues 1-503, control mutant; also called C. reinhardtii SAS-6 (1-503; L306A/E326A); source: E. coli BL21(DE3), purified (HiTrap Talon, 3C cleavage, SEC); not shown: His6, N-terminal, cleaved
Consider B4, for which the binding result in data set [3] was “binds”.

B5: CrSAS-6LQ (domain or fragment, C. reinhardtii, UniProt A9CQL4 1-503, looked up)
chain: B1 chain with L320A, Q330A
notes: C. reinhardtii SAS-6, residues 1-503, control mutant; also called C. reinhardtii SAS-6 (1-503; L320A/Q330A); source: E. coli BL21(DE3), purified (HiTrap Talon, 3C cleavage, SEC); not shown: His6, N-terminal, cleaved
As for B5, in data set [3], the binding result is on record as “binds”.

B6: CrSAS-6_CC_(Middle) (domain or fragment)
chain: KLREVKYELDTKVSELSHKLGSSEGSNRSLEEETARLRSLNQQLSSSKHELEIQLNEAKAKVLALDEKAQSQGDVIEQQRGRLRDMEAALRQTEQRCADLRDTLASAEGRAKEA
For B6, in “ITC”, binding was put at a Kd of 2.3 mM. The same molecule gave a dH in data set [4] of 1 kcal/mol. The same molecule returned a stoichiometry N in data set [5] of 2.
